Reference: paper PMC2654124 (The Journal of Cell Biology, 2009)

Biological target: the molecule itself
Experiment: native gel or EMSA

B1: Ugo1 (natural protein)
chain: MNNNNVTEATSRAQIRPYYDPDSFNAGYSAVFKPDEGVVDPHGYTIASKLNVINSSPTTKRMANALFKSSPMKKLSNSVNDGLSLEGSNGEITGLNNFEWAELVNIQKWRKIFEQLLDMFFRKYFQLLIQQPFDVARLLIQVGEFKIFKTTVDTNKPQAPIILRDEEGDGAAREGEEDAYDEEEIDFFPIERKIAEANSTAPIMAEETDHSHHEPTDISLTIAPQSLHTIDVINALFDQEGIRGLWKANNTTFIYNFLSLSIDTWFTGLLSSFLGVPDPYFMEVINSPDISKSFILALGAGVFTSIILLPVDLIRTRLIVTSFKKKKNVKTDGKNMVTNTRSLRQLIRCWSWRKNGVSIPLDMWSLTILQSINNSFFNKLFDLVIYNQFHIEKYSQTVMYNTMKFFSKSLELFIKLPLENLLRRCQLNYLLNDQRLSFKVDSTELIVKPKKYNGIWDVIRNNSNTNRGQLWNGWKVGVISLICGYGLQMMNKVDINMEQEKF
stoichiometry N: 2
